Test results taken from patent CN117756939A.

Target: 人源LILRB1 (human LILRB1, on HEK293T-hLILRB1, Jurkat-hLILRB1 or Daudi cells) (human)
Assay: flow cytometry, blocking of PE-HLA-G tetramer (2 μg/mL) binding to HEK293T-hLILRB1 cells

IC50: 0.021 µg/mL
Substance: BION-202 (Biond Biologics公司研发的靶向LILRB1人源化IgG4单克隆抗体) (antibody)
